# Source: the supplement of paper PMC9170038
# What was measured:
# MS2 coat protein [1] = test: apparent KD of MS2 coat protein; designed switch direction (-1 OFF switch, 1 ON switch): 1; higher = weaker reporter binding; details: Eterna round: R98
# Protocol: (§1)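 RNA-MaP: designed FMN/MS2 RNA switches (84 nt design region) are transcribed on-chip within common flanks and titrated with SNAP-549-labelled MS2 coat protein (about 1-3000 nM) in 100 mM Tris pH 7.5, 80 mM KCl, 4 mM MgCl2, without or with 200 uM FMN. Median apparent KD per design; activation ratio = KD,OFF / KD,ON.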
# MS2 coat protein [2] = test: apparent KD of MS2 coat protein; higher = weaker reporter binding; details: Eterna round: R101
# Protocol: as §1
Sequence,apparent KD of MS2 coat protein (MS2 coat protein [1]; input ligand: FMN 200 uM) [nM],apparent KD of MS2 coat protein (MS2 coat protein [1]; input ligand: none) [nM],apparent KD of MS2 coat protein (MS2 coat protein [2]; input ligand: none) [nM],apparent KD of MS2 coat protein (MS2 coat protein [2]; input ligand: FMN 200 uM) [nM]
GUAACAUGAGGAUCACCCAUGUCGUGCUAGAUGAGUUCUGGUGAGGAUAUACAUGGUAAAUAACUGUAGAAGGCACUGGGUACA [SameState #67 NG3],44.7,133,,
GUAGCAUUGAGAGGAUAUCCAUACCGGAAACGGACAUGAGGAUCACCCAUGUGGCGAAAGCCUUGGGAGAAGGCUCUAUGCUAC [S-state NG2 01] (puzzle (switch architecture): Same State NG 2),,,4.34,
"GUCGAAUUCUUAGGAUAUCGAGUGGAAUACACUCGAGAAGGAAGAUAUACCUGAGGAUCACCCAGGUUAAACUGAACGACAAUA [Same State NG1 - A3C, U17G Submission 7C]",17.6,17.6,,
UAAAUAAAUCCUAGAGGAUCACCCUAGGAUAUCACCGUCGAGGUGCCAUAAUGGCACCUCGACGGUGAGAAGGAGGGAAAUAAA [#SharedSequence - SLExNG3: 3] (puzzle (switch architecture): Small Loop Exclusion NG 3),,,9.97,11.6
UAAAUAAAUCCUAGAGGAUCACCCUAGGAUAUCACCGUCGAGGUGCCAUAAUGGCACCUCGACGGUGAGAAGGAGGUUGAUAAA [#SharedSequence - SLExNG3: 6] (puzzle (switch architecture): Small Loop Exclusion NG 3),,,8.33,13
UAAAUAGAUCCUAGAGGAUCACCCUAGGAUAUCACCGUCGAGGUGCCAUAAUGGCACCUCGACGGUGAGAAGGAGGUUGAUAAA [#SharedSequence - SLExNG3: 7] (puzzle (switch architecture): Small Loop Exclusion NG 3),,,11.4,19.9
UAGUGUUCUCGAGGAUAUGGGUUCCGUUUUAGCCCAGAAGGCGAACAUGAGGAUCACCCAUGUAUGAAUACACAGCAGAAUUGU [Teedri],153,1750,,
UAUAUAUAUUGAGGAUAUGCACAGGAUCACCGUGUAGAAGGCAUCAGGGAGAAGGUGCAGAGGAUCACCCUGUAAGGAUAUCAU [pwkr2 ssNG1 DX.1],146,205,,
UAUUAUUUGGAGAAGGACAUGAGGAUCACCCAUGUCGCCGGGCCCGGGAAACCGGGCCCGGCCAUGUAGGAUAUCCGGAUGGUA [#This is a good prank 4] (puzzle (switch architecture): Inverted Exclusion NG 2),,,7.31,7.61
UAUUUAUGGUGAGGAUAUGCAAAGGAUCACCUUGUAGAAGGCAUCAGGUAGAAGGUGCAGAGGAUCACCCUGUAAGGAUAUAUC [pwkr2 ssNG1 DX.22],66.1,232,,
UCACUCACGUUAGGAUAUGGAUCGGAAAACGAUCCAGAAGGAACCUGCAAACCUGAGGAACACCCAGGUUCCAAUAACGAGUGA [SameSame 8 - Jieux - Same State NG 1],745,839,,
UCCGAUGUACAUGAGGAUCACCCAUGUCAUAUGCCCGUGACACAGGAUAUCCAGGGUAGGCCAAAGGAGAAGGGUGAUCCGCGG [Lelete],122,51.8,,
UUACUCAUGUAAGGAUAUGCAGCCGAAACGGCUGCAGAAGGUACUAUAAUACAUGAGGAUCACCCAUGUAAAAUAAAUAAGGUU (puzzle (switch architecture): Same State NG 1),,,44.1,19.5
UUUAUUUAUUGAGGAUAUGCACAGGAUCACCGUGUAGAAGGCAUCAGGGAGAAGGUGCAGAGGAUCACCCUGUAAGGAUAUCAC [pwkr2 ssNG1 DX.2],144,381,,
UUUAUUUUUAGAGGAUAUAUAGAGAGAGAGAGAAUAGAAGGCUAAACAUACAUGAACAUGAGGAUCACCCAUGUCACCCAUGUU [Attempt 2],34.3,28.3,,
